Assay results: patent publication US20240252614A1 (Pfizer, published 2024)

Tests used:
hMPV132 = molecular target: T1, hMPV132 (hMPV B, UniProt Q6WB98 19-102); assay: BLI, 56C stress
T1 construct: L141C-A161C, S149T, G239A, T411C-Q434C, A459P
Procedure: (§1) All measurements were conducted at 30° C. temperature in 96-well black plates (Corning, Corning, NY) with a final volume of 240 μL per well at a constant agitation rate of 1000 RPM.
(§2) Conformation integrity of hMPV B F protein mutants were evaluated by a thermal stress experiment. Crude cell culture supernatants were normalized based on the results of the titer quantitation and then incubated for 1 hour at room temperature and two higher temperatures. For the testing of hMPV B single mutants, the two temperatures were 53° C. and 56° C. After the incubation, the protein mutants were probed with prefusion specific monoclonal antibody hMPV-2 by OCTET HTX. Anti-Human IgG Fc Capture (AHC) biosensors were first equilibrated in PB before being dipped into more PB for to establish the initial baseline. Biosensors were incubated with hMPV-2 before being equilibrated in PB to establish the experimental baseline. The mAb-bound biosensors were then dipped into the thermal stresses cell culture supernatants for 5 minutes.

hMPV124 = molecular target: T2, hMPV124 (hMPV B, UniProt Q6WB98 19-102); assay: BLI, 56C stress
T2 construct: L141C-A161C, T411C-Q434C, A459P
Procedure: as §1, §2

hMPV133 = molecular target: T3, hMPV133 (hMPV B, UniProt Q6WB98 19-102); assay: BLI, 56C stress
T3 construct: T49I, L141C-A161C, S149T, G239A, T411C-Q434C, A459P
Procedure: as §1, §2

hMPV137 = molecular target: T4, hMPV137 (hMPV B, UniProt Q6WB98 19-102); assay: BLI, 56C stress
T4 construct: T49I, A140C-S149C
Procedure: as §1, §2

hMPV120 = molecular target: T5, hMPV120 (hMPV B, UniProt Q6WB98 19-102); assay: BLI, 56C stress
T5 construct: A140C-S149C, T411C-Q434C
Procedure: as §1, §2

hMPV139 = molecular target: T6, hMPV139 (hMPV B, UniProt Q6WB98 19-102); assay: BLI, 56C stress
T6 construct: T49I, L141C-A161C, T411C-Q434C
Procedure: as §1, §2

hMPV122 = molecular target: T7, hMPV122 (hMPV B, UniProt Q6WB98 19-102); assay: BLI, 56C stress
T7 construct: A140C-S149C, T411C-Q434C, A459P
Procedure: as §1, §2

hMPV134 = molecular target: T8, hMPV134 (hMPV B, UniProt Q6WB98 19-102); assay: BLI, 56C stress
T8 construct: T49I, L141C-A161C, S149T, G239A, T365I, T411C-Q434C, A459P
Procedure: as §1, §2

hMPV138 = molecular target: T9, hMPV138 (hMPV B, UniProt Q6WB98 19-102); assay: BLI, 56C stress
T9 construct: T49I, A140C-S149C, A459P
Procedure: as §1, §2

hMPV135 = molecular target: T10, hMPV135 (hMPV B, UniProt Q6WB98 19-102); assay: BLI, 56C stress
T10 construct: T49I, S149T, A459P
Procedure: as §1, §2

hMPV117 = molecular target: T11, hMPV117 (hMPV B, UniProt Q6WB98 19-102); assay: BLI, 56C stress
T11 construct: T150C-R156C, A459P
Procedure: as §1, §2

hMPV142 = molecular target: T12, hMPV142 (hMPV B, UniProt Q6WB98 19-102); assay: BLI, 56C stress
T12 construct: L141C-A161C, S149T, A459P
Procedure: as §1, §2

hMPV129 = molecular target: T13, hMPV129 (hMPV B, UniProt Q6WB98 19-102); assay: BLI, 56C stress
T13 construct: T49I, A140C-S149C, G239A, T365I, T411C-Q434C, A459P
Procedure: as §1, §2

hMPV136 = molecular target: T14, hMPV136 (hMPV B, UniProt Q6WB98 19-102); assay: BLI, 56C stress
T14 construct: A140C-S149C, A459P
Procedure: as §1, §2

hMPV126 = molecular target: T15, hMPV126 (hMPV B, UniProt Q6WB98 19-102); assay: BLI, 56C stress
T15 construct: T49I, T150C-R156C, G239A, A459P
Procedure: as §1, §2

hMPV144 = molecular target: T16, hMPV144 (hMPV B, UniProt Q6WB98 19-102); assay: BLI, 56C stress
T16 construct: T49I, L141C-A161C, S149T, A459P
Procedure: as §1, §2

hMPV125 = molecular target: T17, hMPV125 (hMPV B, UniProt Q6WB98 19-102); assay: BLI, 56C stress
T17 construct: L141C-A161C, G239A, T411C-Q434C
Procedure: as §1, §2

hMPV121 = molecular target: T18, hMPV121 (hMPV B, UniProt Q6WB98 19-102); assay: BLI, 56C stress
T18 construct: L141C-A161C, T411C-Q434C
Procedure: as §1, §2

hMPV128 = molecular target: T19, hMPV128 (hMPV B, UniProt Q6WB98 19-102); assay: BLI, 56C stress
T19 construct: T49I, A140C-S149C, G239A, T411C-Q434C, A459P
Procedure: as §1, §2

hMPV127 = molecular target: T20, hMPV127 (hMPV B, UniProt Q6WB98 19-102); assay: BLI, 56C stress
T20 construct: A140C-S149C, G239A, T411C-Q434C, A459P
Procedure: as §1, §2

hMPV131 = molecular target: T21, hMPV131 (hMPV B, UniProt Q6WB98 19-102); assay: BLI, 56C stress
T21 construct: T49I, L141C-A161C, G239A, T411C-Q434C, A459P
Procedure: as §1, §2

hMPV140 = molecular target: T22, hMPV140 (hMPV B, UniProt Q6WB98 19-102); assay: BLI, 56C stress
T22 construct: T49I, L141C-A161C, T411C-Q434C, A459P
Procedure: as §1, §2

hMPV078 = molecular target: T23, hMPV078 (hMPV A, UniProt Q6WB98 19-102); assay: BLI, 58C stress
T23 construct: T411C-Q434C, A140C-S149C
Procedure: (§3) The OCTET HTX (Sartorius, Gottingen, Germany) instrument was used to evaluate the expression and conformational integrity for each mutant. All measurements were conducted at 30° C. temperature in 96-well black plates (Corning, Corning, NY) with a final volume of 240 μL per well at a constant agitation rate of 1000 RPM.
(§4) Conformation integrity of hMPV A F protein mutants were evaluated by thermal stress experiments. Crude cell culture supernatants were normalized based on the results of the titer quantitation and then incubated for 1 hour at room temperature and two higher temperatures. […] Anti-Human IgG Fc Capture (AHC) biosensors were first equilibrated in PB before being dipped into more PB to establish the initial baseline. […] The mAb-bound biosensors were then dipped into the thermal stressed cell culture supernatants for 5 minutes. The kinetics analysis was done by OCTET data analysis software (version 12.0, Sartorius) based on curve fitting of the entire associate step.

hMPV088 = molecular target: T24, hMPV088 (hMPV A, UniProt Q6WB98 19-102); assay: BLI, 58C stress
T24 construct: T411C-Q434C, L141C-A161C, G239A
Procedure: as §3, §4

hMPV083 = molecular target: T25, hMPV083 (hMPV A, UniProt Q6WB98 19-102); assay: BLI, 58C stress
T25 construct: T411C-Q434C, A140C-S149C, A459P, G239A, T49I, T365I
Procedure: as §3, §4

hMPV086 = molecular target: T26, hMPV086 (hMPV A, UniProt Q6WB98 19-102); assay: BLI, 58C stress
T26 construct: T411C-Q434C, L141C-A161C, T49I; also called hMP0086
Procedure: as §3, §4

hMPV085 = molecular target: T27, hMPV085 (hMPV A, UniProt Q6WB98 19-102); assay: BLI, 58C stress
T27 construct: T411C-Q434C, L141C-A161C, A459P
Procedure: as §3, §4

hMPV082 = molecular target: T28, hMPV082 (hMPV A, UniProt Q6WB98 19-102); assay: BLI, 58C stress
T28 construct: T411C-Q434C, A140C-S149C, G239A
Procedure: as §3, §4

B1: hMPV-2 mAb (antibody, V domains shown)
VH: QVQLQQSGAEVKKPGASVKVSCKASGYTFTSYGISWVRQAPGQGLEWMGWISGYNGNTNYAQTFQGTFTMTTDTSTSTAYMELRRLRSGDTAVYYCARDRYYASGSYNGMDVWGQGTTVTVSS
VL: QSALTQPPSASGAPGQRVTVSCSGSSSNVGSSSVYWYQQLPGTAPKLLIYRNNQRPSGVPDRFSGSKSGTSASLAISGLRSEDEADYYCAAWDDSLSGWVFGGGTKLTVLG
notes: human IgG1
- Response Shift (hMPV132): 0.694 nm
- Response Shift (hMPV124): 0.766 nm
- Response Shift (hMPV133): 0.616 nm
- Response Shift (hMPV137): 0.626 nm
- Response Shift (hMPV120): 0.564 nm
- Response Shift (hMPV139): 0.65 nm
- Response Shift (hMPV122): 0.686 nm
- Response Shift (hMPV134): 0.665 nm
- Response Shift (hMPV138): 0.663 nm
- Response Shift (hMPV135): 0.724 nm
- Response Shift (hMPV117): 0.64 nm
- Response Shift (hMPV142): 0.706 nm
- Response Shift (hMPV129): 0.632 nm
- Response Shift (hMPV136): 0.541 nm
- Response Shift (hMPV126): 0.73 nm
- Response Shift (hMPV144): 0.67 nm
- Response Shift (hMPV125): 0.785 nm
- Response Shift (hMPV121): 0.794 nm
- Response Shift (hMPV128): 0.769 nm
- Response Shift (hMPV127): 0.674 nm
- Response Shift (hMPV131): 0.657 nm
- Response Shift (hMPV140): 0.66 nm
- Response Shift (hMPV078): 0.769 nm
- Response Shift (hMPV088): 0.492 nm
- Response Shift (hMPV083): 0.822 nm
- Response Shift (hMPV086): 0.735 nm
- Response Shift (hMPV085): 0.076 nm
- Response Shift (hMPV082): 0.804 nm
